Reference: IntAct's records for PubMed 20676133

B1: RING finger protein 11 (Homo sapiens), Q9Y3C5 (parent)
chain: MGNCLKSPTSDDISLLHESQSDRASFGEGTEPDQEPPPPYQEQVPVPVYHPTPSQTRLATQLTEEEQIRIAQRIGLIQHLPKGVYDPGRDGSEKKIRECVICMMDFVYGDPIRFLPCMHIYHLDCIDDWLMRSFTCPSCMEPVDAALLSSYETN

Variants of: B1
Conditions: with itch_human ITCH
For Y40A, the “effect of a mutation on the interaction” value was “disrupting interaction”.

Variants of: B1
Conditions: with nedd4_human NEDD4, P46934
nedd4_human NEDD4, P46934, sequence (P46934 whole entry): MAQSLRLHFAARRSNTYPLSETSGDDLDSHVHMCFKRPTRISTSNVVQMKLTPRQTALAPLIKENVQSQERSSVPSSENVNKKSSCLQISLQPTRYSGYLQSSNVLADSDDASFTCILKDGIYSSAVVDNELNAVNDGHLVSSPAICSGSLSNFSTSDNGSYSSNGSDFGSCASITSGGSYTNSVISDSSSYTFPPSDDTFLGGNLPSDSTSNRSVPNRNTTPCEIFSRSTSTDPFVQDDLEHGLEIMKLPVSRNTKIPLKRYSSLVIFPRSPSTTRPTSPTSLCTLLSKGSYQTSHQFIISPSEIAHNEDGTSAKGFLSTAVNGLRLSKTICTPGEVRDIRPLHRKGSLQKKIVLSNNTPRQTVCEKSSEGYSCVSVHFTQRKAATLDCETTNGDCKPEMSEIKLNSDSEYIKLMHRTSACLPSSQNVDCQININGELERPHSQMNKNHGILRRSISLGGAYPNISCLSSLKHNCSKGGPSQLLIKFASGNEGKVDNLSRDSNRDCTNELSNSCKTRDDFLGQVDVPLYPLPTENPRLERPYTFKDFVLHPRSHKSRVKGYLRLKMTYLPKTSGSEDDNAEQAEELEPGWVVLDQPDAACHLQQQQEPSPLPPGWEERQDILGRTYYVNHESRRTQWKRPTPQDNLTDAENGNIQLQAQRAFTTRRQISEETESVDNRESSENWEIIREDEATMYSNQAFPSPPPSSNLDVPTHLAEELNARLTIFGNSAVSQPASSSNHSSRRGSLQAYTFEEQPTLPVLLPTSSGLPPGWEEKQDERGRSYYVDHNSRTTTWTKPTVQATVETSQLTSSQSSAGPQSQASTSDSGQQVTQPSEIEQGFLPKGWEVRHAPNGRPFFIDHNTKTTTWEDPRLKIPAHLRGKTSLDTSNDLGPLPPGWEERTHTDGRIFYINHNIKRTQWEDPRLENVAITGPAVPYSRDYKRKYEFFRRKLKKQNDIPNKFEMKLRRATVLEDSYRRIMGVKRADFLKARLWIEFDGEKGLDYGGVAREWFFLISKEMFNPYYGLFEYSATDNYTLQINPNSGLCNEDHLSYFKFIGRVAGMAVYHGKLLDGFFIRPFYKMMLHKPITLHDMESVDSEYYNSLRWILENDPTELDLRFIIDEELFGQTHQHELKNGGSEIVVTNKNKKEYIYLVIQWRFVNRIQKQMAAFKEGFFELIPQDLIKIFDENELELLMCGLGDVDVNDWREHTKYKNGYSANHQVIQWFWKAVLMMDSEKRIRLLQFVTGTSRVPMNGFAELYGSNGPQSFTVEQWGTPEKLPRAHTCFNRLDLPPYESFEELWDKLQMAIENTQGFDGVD
For Y40A, the “effect of a mutation on the interaction” value was “disrupting interaction”.

Variants of: B1
Conditions: with smuf2_human SMURF2, Q9HAU4
smuf2_human SMURF2, Q9HAU4, sequence (Q9HAU4 whole entry): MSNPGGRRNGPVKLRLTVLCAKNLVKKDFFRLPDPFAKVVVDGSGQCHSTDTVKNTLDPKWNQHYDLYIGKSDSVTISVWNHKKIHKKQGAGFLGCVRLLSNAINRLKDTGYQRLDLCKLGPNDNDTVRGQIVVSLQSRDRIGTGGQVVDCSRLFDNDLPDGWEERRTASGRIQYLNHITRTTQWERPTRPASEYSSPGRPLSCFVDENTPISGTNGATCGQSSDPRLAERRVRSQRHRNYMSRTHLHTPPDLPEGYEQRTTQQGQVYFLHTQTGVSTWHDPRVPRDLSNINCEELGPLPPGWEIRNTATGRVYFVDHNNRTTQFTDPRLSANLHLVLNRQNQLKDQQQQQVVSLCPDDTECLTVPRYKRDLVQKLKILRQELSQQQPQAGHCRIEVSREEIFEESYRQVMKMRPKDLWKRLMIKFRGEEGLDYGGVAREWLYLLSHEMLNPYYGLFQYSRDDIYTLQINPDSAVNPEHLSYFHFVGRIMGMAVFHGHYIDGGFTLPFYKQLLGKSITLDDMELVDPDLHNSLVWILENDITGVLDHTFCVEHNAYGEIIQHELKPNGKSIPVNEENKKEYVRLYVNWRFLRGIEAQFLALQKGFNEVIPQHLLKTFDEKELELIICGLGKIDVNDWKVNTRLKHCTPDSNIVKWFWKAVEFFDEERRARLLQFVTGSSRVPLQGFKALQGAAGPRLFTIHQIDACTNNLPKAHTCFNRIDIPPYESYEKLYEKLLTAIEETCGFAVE
In the case of Y40A, the “effect of a mutation on the interaction” value is reported as “disrupting interaction”.
